Among the data in PMC5256278 are 〈Nagg〉G (Guinier aggregation number) and 〈Nagg〉Q (average aggregation number) values, retold here.

Experiment [1] concerns the target squid hemocyanin (Todarodes pacificus) (Todarodes pacificus). Kind of experiment: SAXS; untreated control Hc (0.1 MPa, 25 °C) in solution; Kratky-type camera; aggregation numbers calculated with SAXS Quant 2.0.
The target is the same in experiment [2]. Kind of experiment: SAXS; Hc after high hydrostatic pressure at 200 MPa for 20 min; Kratky-type camera; aggregation numbers calculated with SAXS Quant 2.0.
The target is the same in experiment [3]. In words: SAXS; Hc after high hydrostatic pressure at 400 MPa for 20 min; Kratky-type camera; aggregation numbers calculated with SAXS Quant 2.0.
Experiment [4] shares this target. In words: SAXS; Hc after high hydrostatic pressure at 600 MPa for 20 min; Kratky-type camera; aggregation numbers calculated with SAXS Quant 2.0.

Consider “squid hemocyanin (Todarodes pacificus) (natural protein)”, for which the 〈Nagg〉G (Guinier aggregation number) is 10.2 in experiment [1], 11.9 in experiment [2], 14.2 in experiment [3] and 16 in experiment [4]. Besides, the 〈Nagg〉Q (average aggregation number) is 9.3 in experiment [1], 12.7 in experiment [2], 14.4 in experiment [3] and 15.2 in experiment [4].
